For test [1], the system named is human tumor-infiltrating CD8^+ T cells. The experiment in a line: IL-12 ex vivo studies: IFN-γ ELISA of stimulated patient tumor-infiltrating CD8+ T cells. As to conditions: aCD3 stimulation with IL-12, six cancer patients, 3 days. It is filed as cell-based. From the text: IL-12 ex vivo studies: Fresh tumor resections from six cancer patients undergoing surgical treatment at University Hospital Basel, Switzerland were used to assess whether IL-12 can directly activate human tumor-infiltrating CD8^+ T cells upon isolation of these cells ex vivo. Tumor tissue (two lung adenocarcinomas, three squamous cell carcinomas and one synovial sarcoma) was collected from six different patients undergoing primary surgical treatment between November 2015 and November 2017. The study was approved by the local Ethical Review Board (Ethikkommission Nordwestschweiz) and all patients consented in writing to the analysis of their tumor samples. The solid tumor lesions were mechanically dissociated and enzymatically digested using accutase (PAA), collagenase IV (Worthington), hyaluronidase (Sigma) and DNAse type IV (Sigma), directly after excision. Single cell suspensions were prepared and cryopreserved in liquid nitrogen in 90% fetal calf serum (FCS, Brunschwig Pan Biotech) and 10% dimethylsulfoxide (DMSO, Sigma) until further usage. […] Sorting purity was measured by reanalyzing the sorted cells and always reached >95% purity. […] IFN-γ secreted by these cultures was then measured by enzyme-linked immunosorbent assay according to the instructions by the manufacturer (BD, OptEIA human IFN-γ ELISA set). […]

The next test deals with IFN-γ-eYFP^+ cells. In words: Intravital imaging of MC38 tumors in IFN-γ-eYFP reporter mice. As to conditions: recombinant IL-12, by day four, in the absence of aPD-1. The test is classed as in vivo. The procedure: Tumor bearing mice, with a tumor size of approximately 75 mm^3, were treated with 200 μg of aPD-1 and/or 100 μg of aCD40 intraperitoneally for immunotherapy studies. For combination treatment studies, both aPD-1 and aCD40 were administered at the same time. For IL-12 neutralization studies, mice were dosed with 500 μg of anti-IL-12p40 Clone 17.8 daily for 5-7 days following aPD-1 therapy. Neutralization of IFN-γ in vivo was performed by administering 1 mg of anti-IFN-γ Clone XMG1.2 initially with 500 μg of anti-IFN-γ dosed daily intraperitoneally for days 1-3. The cIAP1/2 inhibitor AZD5582 (Hennessy et al., 2013) was purchased from Selleck Chem and was resuspended in sterile saline. […]
Interferon gamma reporter (IFN-γ-eYFP) or IL-12p40 reporter (IL12p40-eYFP) mice were anesthetized and dorsal skin-fold window chambers were installed as previously described (Thurber et al., 2013) and mice were treated with analgesic (Buprenorphine 0.1 mg/kg/day) for 3 days following chamber implantation. […] Anesthetized mice were kept on a heating pad kept at 37° C., vital signs monitored and mice were imaged using an Olympus FluoView FV1000MPE confocal imaging system (Olympus America). […] Sequential scanning (5 μm slices) with 405, 473, 559, and 635 nm lasers was performed using voltage and power settings that were optimized using fluorescence minus-one control mice prior to time lapse acquisition. […]

B1: IL-12: recombinant IL-12 in mouse studies; recombinant human IL-12p70 (PeproTech) in the human ex vivo studies (protein, UniProt P29459 23-219; P29460 23-328, looked up)
Interleukin-12 subunit alpha: RNLPVATPDPGMFPCLHHSQNLLRAVSNMLQKARQTLEFYPCTSEEIDHEDITKDKTSTVEACLPLELTKNESCLNSRETSFITNGSCLASRKTSFMMALCLSSIYEDLKMYQVEFKTMNAKLLMDPKRQIFLDQNMLAVIDELMQALNFNSETVPQKSSLEEPDFYKTKIKLCILLHAFRIRAVTIDRVMSYLNAS
Interleukin-12 subunit beta: IWELKKDVYVVELDWYPDAPGEMVVLTCDTPEEDGITWTLDQSSEVLGSGKTLTIQVKEFGDAGQYTCHKGGEVLSHSLLLLHKKEDGIWSTDILKDQKEPKNKTFLRCEAKNYSGRFTCWWLTTISTDLTFSVKSSRGSSDPQGVTCGAATLSAERVRGDNKEYEYSVECQEDSACPAAEESLPIEVMVDAVHKLKYENYTSSFFIRDIIKPDPPKNLQLKPLKNSRQVEVSWEYPDTWSTPHSYFSLTFCVQVQGKSKREKKDRVFTDKTSATVICRKNASISVRAQDRYYSSSWSEWASVPCS
With B1, the “IFN-γ production by CD8^+ T cells” value in test [1] is recorded as “increased IFN-γ production by CD8^+ T cells in five out of six patients”. Besides, the “fold increase of IFN-γ-eYFP^+ cells” value with IFN-γ-eYFP^+ cells is 5.9±0.7 fold.

The values above are taken from patent publication US20210355221A1, “Targeting the Non-Canonical NFkB Pathway in Cancer Immunotherapy” (The General Hospital Corporation, priority 2018, published 2021).
